Experimental data: paper PMC3706390

Biological target: L30 (ribosomal protein L30) wild-type (rat) (UniProt P62890)
Experiment: EMSA
Settings: 30 mM Tris-HCl pH 8.0, 75 mM KCl, 5 mM MgCl2, 1 mM DTT, 0.04 ug/uL BSA, 10% glycerol, 50 ng/uL yeast tRNA, 30 C 15 min; EMSA gels 0.5X TBE at 4 C; RNase …

Substance: PHGPx SECIS 102 nt (REMSA)
- Kd: 0.49 µM
